Broadly, the Kd is a measure of binding affinity in units of concentration. A low value points to tighter binding. A word on the koff: it is a measure of how fast the partners let go of each other. A high value points to a short-lived complex. By kon is commonly meant the second-order rate constant of association. A high value points to fast association.

Numbering of substitutions follows the chain as printed.

The target in assay [1] is SARS-CoV-2 spike trimer, soluble (SARS-CoV-2).

B1: Ab_16 scFv-Fc (scFv, V domains shown)
VH: QVQLVQSGGGVVQPGRSLRLSCAASGFTFSNYGMHWVRQAPGKGLEWVALIWERGSKKDYADSVKGRFTVSRDNSKNTLYLQMNSLRPEDTAVYFCAREGISMTGAEYFQHWGQGTLVTVSS
VL: QSVLTQPPSVSGSPGQRVTMSCTGSSSNIGAGYDVHWYQQVPGAAPRLLIYGTNNRPSGVPDRFSGSKSGTSASLTITGLQAEDEADYYCQSYDNSLTDPYVFGTGTKVTVL
In the assay with D614G Spike (SARS-CoV2), B1 yielded a Kd of 8.35 pM and a Response of 0.434.

B2: RBD-R3-E1-B3 Ab (Ab_32) scFv-Fc (scFv, V domains shown)
VH: QVQLVQSGAEVKKPGESLKISCKGSGYSFTSYWIGWVRQMPGKGLEWMGIIYPGDSDTRYSPSFQGQVTISADKSISTAYLQWSSLKASDTAMYYCARGWQWHDYWGQGTLVTVSS
VL: QTVVTQEPAVSVALGQTVRITCQGDSLRSYYASWYQQKPGQAPVLVVYDKDKRPSGIPDRFSGSTSGNTASLTITGAQAEDEADYYCNSRDRSDNHVVFGGGTKLTVL
In the assay with D614G Spike (SARS-CoV2), B2 returned a Kd of 7.26 pM and a Response of 0.204.

B3: RBD-R3-E1-A5 Ab (Ab_30) scFv-Fc (scFv, V domains shown)
VH: QVQLVQSGGGVVQPGKSLRLSCTASGFTFSDFPIHWVRQAPGKGLEWVGVISYDGNIKYYGDSVKGRFTISRDNAKNSLYLQMNSLRVEDTAVYYCARGGSSFDIWGQGTTVTVSS
VL: SYELTQPPSVSEAPRQRVTISCSGSTSNIGNNAVSWYQHLPGKAPKLLIYYNERLPSGVSDRFSGSKSGTSASLAISGLRSEDEADYYCAAWDDSLSGHVVFGGGTKLTVL
In the assay with D614G Spike (SARS-CoV2), B3 showed a Kd of 7.43 pM and a Response of 0.179.

B4: Ab_23 scFv-Fc (scFv, V domains shown)
VH: EVQLVQSGAEVKKPGSSVKVSCRSSGGTFSTYGITWVRQAPGQGLEWMGRIIPSLGIPNYAQKFQGRVTITADTSVSTAWMELSSLESDDTAIYYCARENIDLATNDFWGQGTLVTVSS
VL: QSALTQPPSASGSPGQSVTISCTGTSRDIGAYGYVSWYQQVPGKAPKLIIYEVRNRPSGVSSRFSGSKSGNTASLTISGLQAEDEADYYCSSYTSSSTLDVVFGGGTKLTVL
In the assay with D614G Spike (SARS-CoV2), B4 gave a Kd of 8.82 pM and a Response of 0.162.

B5: Ab_17 scFv-Fc (scFv, V domains shown)
VH: QVQLVQSGGGVVQPGRSLRLSCAASGFTFDDYAMHWVRQVPGKGLEWVSGIDWNSGVIGYADSVKGRFTISRDNVKNSLYLQMNSLRTEDSALYYCAKDIGPGGSGSYYAFDIWGQGTTVTVSS
VL: QSALTQPASVSGSPGQSITISCTGTSSDVGGSKYVSWYQQHPGKAPKVMIYDVTKRPSGVPDRFSGSKSGNTASLTISGLQAEDEADYYCAAWDDSLNGVVFGGGTKLTVL
Consider B5, for which, in the assay with D614G Spike (SARS-CoV2), the Kd stood at 6.8 pM and the Response was found to be 0.357.

B6: Ab_18 scFv-Fc (scFv, V domains shown)
VH: EVQLVQSGGGVVQPGRSLRVSCAASGFSFSRYGMHWVRQAPGKGLEWVAFIRHDGSKKYYADSVEGRFTISRDNSRNTVSLEMNSLRGEDTAVYYCAKDGRLEAALDDWGQGTLVTVSS
VL: NFMLTQPHSMSGSAGKTVTVSCIRSSGSIANNFVQWYQQRPGSAPTTVIYEDNQRPSGVPDRFSGSIDSSSNSASLTISGLKTEDEADYYCQSYDSSNLVFGGGTRLTVL
In the assay with D614G Spike (SARS-CoV2), B6 displayed a Kd of 6.33 pM and a Response of 0.291.

B7: S1-R3-T1-C4 (Ab_8) scFv-Fc (scFv, V domains shown)
VH: QVQLVQSGAEVKKPGSSVKVSCKASGGTFSSYAISWLRQAPGQGLEWMGWINPNSGGTNYAQKFQGRVTMTRDTSISTAYMELSRLRSDDTAVYYCARGSGGYYLGWGQGTLVTVSS
VL: QPGLTQPPSVSKGLRQTATLTCTGNSNNVGNQGAAWLQQHQGHPPKLLSYMNNNRPPGISERFSASRSGNTASLTITGLQPEDEADYYCSAWDSSLSRWVFGGGTKLSVL
With B7, in the assay with D614G Spike (SARS-CoV2), the Kd was 7.3 pM and the Response was determined as 0.187.

B8: Ab_26 scFv-Fc (scFv, V domains shown)
VH: QVQLVQSGGGLVQPGRSLRLSCAASGFTFDDYAMHWVRQVPGKGLEWVSGIDWNSGVIGYADSVKGRFTISRDNAKNSLYLQMNSLRAEDTALYYCAKDAYSYGFLGAFDIWGQGTMVTVSS
VL: LPVLTQPPSVSVAPGQTASITCGGDNIRTKGVHWYQQKPGQAPLLVIYYASDRPSGIPERFSGSSSGNTATLTISRVEAGDEADYYCQVWDSSSDLVVFGGGTTLTVL
In the assay with D614G Spike (SARS-CoV2), B8 registered a Kd of 9.97 pM and a Response of 0.304.

B9: Ab_21 scFv-Fc (scFv, V domains shown)
VH: QVQLVQSGGGLVQPGGSLRLSCATSGFTFDDYAMHWVRQAPGKGLEWVSGISWNSGSIGYVDSVKGRFTISRDNRNNKVYLQMNNLRAEDTAVYYCARDWWGSIDHWGLGTLVTVSS
VL: QSALTQPRSVSGSPGQSVTISCTGTSSDVGGYDYVSWYQQHPGKAPKLIIYDVSKRPSGVPDRFSGSKSGNTASLTVSGLQAEDEADYYCSSYTSSSPVVFGGGTKLTVL
As for B9, in the assay with D614G Spike (SARS-CoV2), the Kd was found to be 8 pM and the Response was found to be 0.228.

B10: Ab2-7 IgG (antibody, V domains shown)
VH: QVTLKESGPTRVKPTQTLTLTCTFSGFSLSTTGVGVGWIRQPPGKALEWLALIYWNDDKRYSPSLKSRLTITKDTSKNQVVLTMTNMDPVDTATYYCARISGSGYFYPFDIWGQGTTVTVSS
VL: NFMLTQPHSVSESPGKTVTISCTRSSGSIASNYVQWYQQRPGSSPTTVIYEDNQRPSGVPDRFSGSIDSSSNSASLTISGLKAEDEADYYCQSYDSSSLWVFGGGTKLTVL
As to B10, in assay [1], the Kd was < 1 pM, the koff was < 1e-07 s⁻¹ and the kon was 4.31e+07 M⁻¹ s⁻¹.

B11: Ab_13 scFv-Fc (scFv, V domains shown)
VH: B10 VH with T10K, R11L, T32S, N56D, T72A, N78Y, T117M, S122A
VL: B10 VL with S44A, A83T, S98N
For B11, in the assay with D614G Spike (SARS-CoV2), the Kd was 8.1 pM and the Response was found to be 0.107.

B12: Ab_28 scFv-Fc (scFv, V domains shown)
VH: QVTLKESGPGLVNPSETLSLTCTVSGASISNSFWSWIRQSPGKGLEWIGYTSYSGNSIYNPSLKSRLTMSIDTSKNQLSLNLRSLTAADTAVYYCARREWIKGHFDYWGQGTLVTVSS
VL: B10 VL with R24G, S26G, S44A, A83T, S98N, L99P, W100V
In the assay with D614G Spike (SARS-CoV2), B12 showed a Kd of 9.41 pM and a Response of 0.199.

B13: Ab_25 scFv-Fc (scFv, V domains shown)
VH: QVQLVQSGGGLVQPGGSLRLSCAASGFTFSSYWMSWVRQAPGKGLEWVANIKQDGSEKYYVDSVKGRFTISRDNAKNSLYLQMNSLRAEDTAVYYCARGFYYYGAFDIWGQGTTVTVSS
VL: B10 VL with R24G, S44A, D68G, A83T, S98N, L99H
In the assay with D614G Spike (SARS-CoV2), B13 displayed a Kd of 8.56 pM and a Response of 0.0425.

B14: Ab_20 scFv-Fc (scFv, V domains shown)
VH: QVQLVQSGGGSVKPGGSLRLSCAASGYRLSDYYMHWVRQAPGKGLEWVANIKQDGSEKYYVDSVKGRFTISRDNAKNSLYLQMNSLRAEDTAVYYCARVRGWSRGYFDYWGQGTLVTVSS
VL: B10 VL with R24G, S44A, T77L, A83T, S98N, L99H
In the assay with D614G Spike (SARS-CoV2), B14 displayed a Kd of 8.64 pM and a Response of 0.19.

B15: S1-RBD-R3-T1-C7 Ab (Ab_29) scFv-Fc (scFv, V domains shown)
VH: QVQLQQSGPGLVKPSQTLSLTCAISGDSVSSYSDAWNWIRQSPSRGLEWLGRTYYRSKWYNDYAVSVKSRITINPDTSKNQFSLQLSSVTPEDTAVYYCAREIVATTPFRNYYYGMDVWGQGTTVTVSS
VL: B10 VL with K16N, S25T, Y50F, E51Q, N53K, Q54L, A83T
For the molecule B15, in the assay with D614G Spike (SARS-CoV2), the Kd was found to be 1.04 pM and the Response came to 0.202.

B16: S1-RBD-R3-T1-F5 (Ab2-7) scFv-Fc (scFv, V domains shown)
VH: B10 VH
VL: B10 VL
B16: in the assay with D614G Spike (SARS-CoV2), the Kd stood at 9.93 pM and the Response was determined as 0.116.

B17: S1-RBD-R3-T1-B12 Ab (Ab_31) scFv-Fc (scFv, V domains shown)
VH: QVQLVQSGAEVKKPGSSVKVSCKASGGTFSSYTISWVRQAPGQGLEWMGGIIPILGTPNYAQKFQDRVAITADKSTSTAYMELSSLRSEDTAVYYCAVGSGWYSGFDYWGQGTLVTVSS
VL: NFMLTQPHSVSESPGKTVTISCTGSSGSIASNYVQWYQQRPGSAPTTVIYEDSQRPSGVPDRFSGSIDSSSNSASLTISGLKTEDEADYYCQSFHNSNPVIFGGGTKLTVL
In the assay with D614G Spike (SARS-CoV2), B17 had a Kd of 9.03 pM and a Response of 0.168.

B18: Ab_19 scFv-Fc (scFv, V domains shown)
VH: EVQLVESGAEVKKPGESLKISCKGSGYSFTSYWIGWVRQMPGKGLEWMGIIYPGDSDTRYSPSFQGQVTISADKSISTAYLQWSSLKASDTAMYYCARRGDLDAFDIWGQGTMVTVSS
VL: QPGLTQPPAASGTPGQRVTVSCSGASANIGSNAVSWFKQFPETAPRLLISGNTHRPSGVPDRVSGSKSGTSASLTISGLQSDDEADYYCAAWDDSLNGYVFGSGTKVTVL
In the case of B18, in the assay with D614G Spike (SARS-CoV2), the Kd amounted to 10.9 pM and the Response amounted to 0.237.

B19: Ab_14 scFv-Fc (scFv, V domains shown)
VH: QVQLQQSGPGLVKPSQTLSLTCAISGDSVSSNSAAWNWIRQSPARGLEWLGRTYYRSRWYNDYAISMKSRITINPDTSKNQFSLQLESVTPEDTAVYYCAREIRGFDYWGQGTLVTVSS
VL: QSVLTQPPSASGSPGQSVTISCTGTSSDVGAYNFVSWYQHHPGKAPKLIIYDFNKRPSGVPDRFSGSKSGNTASLTVSGLQADDEADYYCSSYAGSNNFDVVFGGGTKLTVL
For B19, in the assay with D614G Spike (SARS-CoV2), the dissociation constant Kd came to 8.12 pM and the Response was determined as 0.402.

B20: Ab_27 scFv-Fc (scFv, V domains shown)
VH: QVQLVQSGTEVKKPGASVKVSCKASGYSFTGSHLHWVRQAPGQGLEWMGWINPDSGVINYAQKFQGRVTLTRDTSISTAYMELSGLRSDDTAVYYCARDKAIGYVWALDYWGQGTLVTVSS
VL: QSALTQPPSVSGSPGQSVTISCTGTSSDVGTYNRVSWYQQPPGKAPKLMIYEVSNRPSGVSNRFSGSKSGNTASLTISGLQAEDEADYYCSSYTRTFTYVFGTGTKVTVL
For the molecule B20, in the assay with D614G Spike (SARS-CoV2), the Kd was 7.53 pM and the Response was 0.276.

Source of the values: patent publication US20240409617A1.
